Laboratory results taken from patent US8642734.

Test: dynamic light scattering; self-association of NT below pH 6.4

B1: NT, N-terminal fragment of major ampullate spidroin (MaSp) 1 from Euprosthenops australis (protein)
chain: GSGNSHTTPWTNPGLAENFMNSFMQGLSSMPGFTASQLDDMSTIAQSMVQSIQSLAAQGRTSPNKLQALNMAFASSMAEIAASEEGGGSLSTKTSSIASAMSNAFLQTTGVVNQPFINEITQLVSMFAQAGMNDVSA
hydrodynamic size of polymers: polymers with a hydrodynamic size of ˜700 nm below pH 6.4
